From publication PMC7134607 (Biochemical and Biophysical Research Communications, 2004)

Biological target: the molecule itself
Experiment: enzyme activity versus enzyme concentration

B1: SARS main protease (enzyme)
chain: SGFRKMAFPSGKVEGCMVQVTCGTTTLNGLWLDDTVYCPRHVICTAEDMLNPNYEDLLIRKSNHSFLVQAGNVQLRVIGHSMQNCLLRLKVDTSNPKTPKYKFVRIQPGQTFSVLACYNGSPSGVYQCAMRPNHTIKGSFLNGSCGSVGFNIDYDCVSFCYMHHMELPTGVHAGTDLEGKFYGPFVDRQTAQAAGTDTTITLNVLAWLYAAVINGDRWFLNRFTTTLNDFNLVAMKYNYEPLTQDHVDILGPLSAQTGIAVLDMCAALKELLQNGMNGRTILGSTILEDEFTPFDVVRQCSGVTFQ
Kd: 15 ± 4 nM
